Experiments:
LC/MS = conditions: glycan lost; control: parental PANC-1
LIVE/DEAD staining = conditions: glycan lost; control: parental PANC-1
Western blot and qPCR = conditions: glycan lost; control: parental PANC-1
soft agar colony assay = conditions: glycan lost; control: parental PANC-1
[1] = low-attachment sphere assay; conditions: glycan lost; control: parental PANC-1
blot = conditions: glycan lost; control: wild-type RRM1
[2] = XTT viability, 3-day gemcitabine; conditions: glycan lost; control: parental PANC-1
[3] = nocodazole release, PI flow cytometry; conditions: glycan lost; control: parental PANC-1
[4] = γH2AX, 53BP1, RPA immunofluorescence foci; conditions: glycan lost; control: parental PANC-1

B1: ribonucleotide reductase large subunit M1 (RRM1): RRM1-T734A (protein)
parent chain: MHVIKRDGRQERVMFDKITSRIQKLCYGLNMDFVDPAQITMKVIQGLYSGVTTVELDTLAAETAATLTTKHPDYAILAARIAVSNLHKETKKVFSDVMEDLYNYINPHNGKHSPMVAKSTLDIVLANKDRLNSAIIYDRDFSYNYFGFKTLERSYLLKINGKVAERPQHMLMRVSVGIHKEDIDAAIETYNLLSERWFTHASPTLFNAGTNRPQLSSCFLLSMKDDSIEGIYDTLKQCALISKSAGGIGVAVSCIRATGSYIAGTNGNSNGLVPMLRVYNNTARYVDQGGNKRPGAFAIYLEPWHLDIFEFLDLKKNTGKEEQRARDLFFALWIPDLFMKRVETNQDWSLMCPNECPGLDEVWGEEFEKLYASYEKQGRVRKVVKAQQLWYAIIESQTETGTPYMLYKDSCNRKSNQQNLGTIKCSNLCTEIVEYTSKDEVAVCNLASLALNMYVTSEHTYDFKKLAEVTKVVVRNLNKIIDINYYPVPEACLSNKRHRPIGIGVQGLADAFILMRYPFESAEAQLLNKQIFETIYYGALEASCDLAKEQGPYETYEGSPVSKGILQYDMWNVTPTDLWDWKVLKEKIAKYGIRNSLLIAPMPTASTAQILGNNESIEPYTSNIYTRRVLSGEFQIVNPHLLKDLTERGLWHEEMKNQIIACNGSIQSIPEIPDDLKQLYKTVWEISQKTVLKMAAERGAFIDQSQSLNIHIAEPNYGKLTSMHFYGWKQGLKTGMYYLRTRPAANPIQFTLNKEKLKDKEKVSKEEEEKERNTAAMVCSLENRDECLMCGS
no change: other: cell death (LIVE/DEAD staining)
increases: other: gemcitabine sensitivity [2] | other: S-phase duration [3] | other: DNA damage and replication stress foci [4]
decreases: other: cellular NTP pools (LC/MS) | other: thymidine phosphorylase (TP) expression (Western blot and qPCR) | other: colony formation (soft agar colony assay) | other: sphere formation [1] | other: RRM1 serine/threonine phosphorylation (blot)

From PMC12086086
